# Biological target: PggH (phosphoguanylyl guanylate hydrolase), VCA0593 of Vibrio cholerae (Vibrio cholerae El Tor N16961)
# Experiment: SEC
substance,measurement,value
"PggH (phosphoguanylyl guanylate hydrolase), VCA0593 of Vibrio cholerae (enzyme)",stoichiometry N,2

# — PMC8861645
